Measured values as given in paper PMC5665596.

Columns and labels:
[1] = biological target: MotS_(D30A) (B. subtilis); test: high-speed atomic force microscopy
MotS (B. subtilis) = test: high-speed atomic force microscopy

MotS_(D30A) (natural protein)
percent of particles with an unfolded conformation of MotSC [1]: 18%

MotS (natural protein)
stoichiometry N (MotS (B. subtilis)): 2
